Measurements as given in the Human Domainome abundance scans (Beltran et al. 2025).
± gives the uncertainty stated by the source.

B1: Spectrin alpha chain, erythrocytic 1, residues 979 to 1036; numbered along this chain, P02549 (parent)
chain: EQRVMALYDFQARSPREVTMKKGDVLTLLSSINKDWWKVEAADHQGIVPAVYVRRLAH

Variants of: B1
Assay: abundance fitness (aPCA) (normalised: wild type 0, dead -1); higher = more abundant; growth selection in yeast, the domain comes from the species named
Settings: Homo sapiens
EQRVMALYDFQAWSPREVTMKKGDVLTLLSSINKDWWKVEAADHQGIVPAVYVRRLAH gave an abundance fitness of -0.738 ± 0.24.
For EQRVMALYDFQAFSPREVTMKKGDVLTLLSSINKDWWKVEAADHQGIVPAVYVRRLAH, the abundance fitness was -0.585 ± 0.27.
Work on EQRVMALYDFQAQSPREVTMKKGDVLTLLSSINKDWWKVEAADHQGIVPAVYVRRLAH yielded an abundance fitness of -0.305 ± 0.088.
For EQRVMALYDFQAASPREVTMKKGDVLTLLSSINKDWWKVEAADHQGIVPAVYVRRLAH, the abundance fitness was -0.26 ± 0.16.
EQRVMALYDFQALSPREVTMKKGDVLTLLSSINKDWWKVEAADHQGIVPAVYVRRLAH showed an abundance fitness of -0.742 ± 0.12.
EQRVMALYDFAARSPREVTMKKGDVLTLLSSINKDWWKVEAADHQGIVPAVYVRRLAH showed an abundance fitness of -0.37 ± 0.14.
Work on EQRVMALYDFPARSPREVTMKKGDVLTLLSSINKDWWKVEAADHQGIVPAVYVRRLAH yielded an abundance fitness of -0.91 ± 0.37.
Work on EQRVMALYDFMARSPREVTMKKGDVLTLLSSINKDWWKVEAADHQGIVPAVYVRRLAH yielded an abundance fitness of -0.314 ± 0.092.
In the case of EQRVMALYDFWARSPREVTMKKGDVLTLLSSINKDWWKVEAADHQGIVPAVYVRRLAH, the abundance fitness is reported as -1.23 ± 0.32.
EQRVMALYDFYARSPREVTMKKGDVLTLLSSINKDWWKVEAADHQGIVPAVYVRRLAH showed an abundance fitness of -0.185 ± 0.095.
With EQRVMALYDFVARSPREVTMKKGDVLTLLSSINKDWWKVEAADHQGIVPAVYVRRLAH the abundance fitness was 0.097 ± 0.13.
Variant EQRVMALYDFSARSPREVTMKKGDVLTLLSSINKDWWKVEAADHQGIVPAVYVRRLAH has an abundance fitness of -0.372 ± 0.1.
With EQRVMALYDFKARSPREVTMKKGDVLTLLSSINKDWWKVEAADHQGIVPAVYVRRLAH the abundance fitness was 0.303 ± 0.14.
Variant EQRVMALYDFDARSPREVTMKKGDVLTLLSSINKDWWKVEAADHQGIVPAVYVRRLAH has an abundance fitness of -0.582 ± 0.38.
In the case of EQRVMALYDFTARSPREVTMKKGDVLTLLSSINKDWWKVEAADHQGIVPAVYVRRLAH, the abundance fitness is reported as 0.028 ± 0.14.
In the case of EQRVMALYDFGARSPREVTMKKGDVLTLLSSINKDWWKVEAADHQGIVPAVYVRRLAH, the abundance fitness is reported as -0.774 ± 0.11.
Variant EQRVMALYDFHARSPREVTMKKGDVLTLLSSINKDWWKVEAADHQGIVPAVYVRRLAH has an abundance fitness of -0.421 ± 0.37.
EQRVMALYDFEARSPREVTMKKGDVLTLLSSINKDWWKVEAADHQGIVPAVYVRRLAH gave an abundance fitness of -0.328 ± 0.34.
Variant EQRVMALYDFCARSPREVTMKKGDVLTLLSSINKDWWKVEAADHQGIVPAVYVRRLAH has an abundance fitness of -0.348 ± 0.094.
For EQRVMALYDFIARSPREVTMKKGDVLTLLSSINKDWWKVEAADHQGIVPAVYVRRLAH, the abundance fitness was -0.419 ± 0.33.
Work on EQRVMALYDFQARSPRQVTMKKGDVLTLLSSINKDWWKVEAADHQGIVPAVYVRRLAH yielded an abundance fitness of -0.239 ± 0.31.
Work on EQRVMALYDFQARSPRSVTMKKGDVLTLLSSINKDWWKVEAADHQGIVPAVYVRRLAH yielded an abundance fitness of -0.92 ± 0.41.
Work on EQRVMALYDFQARSPRNVTMKKGDVLTLLSSINKDWWKVEAADHQGIVPAVYVRRLAH yielded an abundance fitness of -0.693 ± 0.32.
In the case of EQRVMALYDFQARSPRCVTMKKGDVLTLLSSINKDWWKVEAADHQGIVPAVYVRRLAH, the abundance fitness is reported as -0.911 ± 0.41.
In the case of EQRVMALYDFQARSPRVVTMKKGDVLTLLSSINKDWWKVEAADHQGIVPAVYVRRLAH, the abundance fitness is reported as -0.9 ± 0.32.
EQRVMALYDFQARSPRLVTMKKGDVLTLLSSINKDWWKVEAADHQGIVPAVYVRRLAH gave an abundance fitness of -0.802 ± 0.19.
Work on EQRVMALYDFQARSPRTVTMKKGDVLTLLSSINKDWWKVEAADHQGIVPAVYVRRLAH yielded an abundance fitness of -0.729 ± 0.41.
With EQRVMALYDFQARSPRGVTMKKGDVLTLLSSINKDWWKVEAADHQGIVPAVYVRRLAH the abundance fitness was -0.801 ± 0.27.
For EQRVMALYDFQARSPRYVTMKKGDVLTLLSSINKDWWKVEAADHQGIVPAVYVRRLAH, the abundance fitness was -0.012 ± 0.27.
EQRVMALYDFQARSPRWVTMKKGDVLTLLSSINKDWWKVEAADHQGIVPAVYVRRLAH showed an abundance fitness of -0.8 ± 0.28.
Work on EQRVMALYDFQARSPRDVTMKKGDVLTLLSSINKDWWKVEAADHQGIVPAVYVRRLAH yielded an abundance fitness of -0.738 ± 0.28.
EQRVMALYDFQARSPRFVTMKKGDVLTLLSSINKDWWKVEAADHQGIVPAVYVRRLAH showed an abundance fitness of -0.594 ± 0.46.
Work on EQRVMALYDFQARSPRAVTMKKGDVLTLLSSINKDWWKVEAADHQGIVPAVYVRRLAH yielded an abundance fitness of -0.64 ± 0.23.
For EQRVMALYDFQARSPRHVTMKKGDVLTLLSSINKDWWKVEAADHQGIVPAVYVRRLAH, the abundance fitness was -0.63 ± 0.13.
In the case of EQRVMALYDFQARSPRKVTMKKGDVLTLLSSINKDWWKVEAADHQGIVPAVYVRRLAH, the abundance fitness is reported as -0.403 ± 0.46.
Work on EQRVMALYDFQARSPRRVTMKKGDVLTLLSSINKDWWKVEAADHQGIVPAVYVRRLAH yielded an abundance fitness of -0.778 ± 0.21.
Work on EQRVMALYDFQKRSPREVTMKKGDVLTLLSSINKDWWKVEAADHQGIVPAVYVRRLAH yielded an abundance fitness of -0.71 ± 0.47.
For EQRVMALYDFQLRSPREVTMKKGDVLTLLSSINKDWWKVEAADHQGIVPAVYVRRLAH, the abundance fitness was -0.964 ± 0.23.
Variant EQRVMALYDFQWRSPREVTMKKGDVLTLLSSINKDWWKVEAADHQGIVPAVYVRRLAH has an abundance fitness of -0.804 ± 0.4.
For EQRVMALYDFQGRSPREVTMKKGDVLTLLSSINKDWWKVEAADHQGIVPAVYVRRLAH, the abundance fitness was -0.779 ± 0.2.
With EQRVMALYDFQVRSPREVTMKKGDVLTLLSSINKDWWKVEAADHQGIVPAVYVRRLAH the abundance fitness was -0.848 ± 0.38.
EQRVMALYDFQMRSPREVTMKKGDVLTLLSSINKDWWKVEAADHQGIVPAVYVRRLAH showed an abundance fitness of -0.891 ± 0.41.
Variant EQRVMALYDFQSRSPREVTMKKGDVLTLLSSINKDWWKVEAADHQGIVPAVYVRRLAH has an abundance fitness of -0.802 ± 0.24.
For EQRVMALYDFQFRSPREVTMKKGDVLTLLSSINKDWWKVEAADHQGIVPAVYVRRLAH, the abundance fitness was -0.627 ± 0.41.
EQRVMALYDFQRRSPREVTMKKGDVLTLLSSINKDWWKVEAADHQGIVPAVYVRRLAH showed an abundance fitness of -0.389 ± 0.17.
For EQRVMALYDFQPRSPREVTMKKGDVLTLLSSINKDWWKVEAADHQGIVPAVYVRRLAH, the abundance fitness was -0.971 ± 0.14.
